According to patent US20250019439A1 (Adimab, published 2025):

Key:
ADI-26913 anti-CD3 bsIgG = biological target: T1, ADI-26913 anti-CD3 bsIgG; experiment: BLI; tip anti-CD3 bsIgG, solution ADI-34145 IgG
T1 construct: anti-HER2 IgG with one Fab arm replaced by the anti-CD3 scFv (printed 'Vx-VH', read as VL-VH); S354C and Y349C mutations; also called anti-CD3 bsIgG (ADI-26913 scFv); not shown: scFv linker; anti-HER2 Fab arm (heavy and light chain); hinge and Fc with S354C/Y349C
Procedure: (§1) ForteBio affinity measurements were performed generally as previously described (Estep et al., MAbs. 2013 5(2):270-8). Briefly, ForteBio affinity measurements were performed by loading antibody IgG or Fabs on-line onto AHC sensors. Sensors were equilibrated off-line in assay buffer for 30 minutes and then monitored on-line for 60 seconds for baseline establishment. For avid binding measurement, sensors with loaded antibodies were exposed to IgG or Fab solutions for 3 minutes, afterwards they were transferred to assay buffer for 3 minutes for off-rate measurement. Kinetics data were fit using a 1:1 binding model in the data analysis software provided by ForteBio to obtain equilibrium dissociation constant (KD=koff/kₒₙ) values. In each column, tip-immobilized antibodies are listed first and solution antibodies second.
(§2) Additional analysis was conducted using bispecific antibody formats incorporating anti-CD3 antibody variable domains. Bispecific antibodies were prepared using standard IgG formats (bsIgG) with replacement of Fab arms with anti-CD3 scFvs in Vx-VH orientation and with S354C and Y349C mutations for disulfide stabilization. Antibodies used for Fab arm replacement were anti-HER2 IgG antibodies, with one Fab arm from each replaced by a scFv corresponding to a different anti-CD3 antibody. […] In each column, tip-immobilized antibodies are listed first and solution antibodies second. Anti-CD3 antibodies associated with incorporated scFvs are listed by antibody number.

ADI-26916 anti-CD3 bsIgG = biological target: T2, ADI-26916 anti-CD3 bsIgG; experiment: BLI; tip anti-CD3 bsIgG, solution ADI-34145 IgG
T2 construct: anti-HER2 IgG with one Fab arm replaced by the anti-CD3 scFv (printed 'Vx-VH', read as VL-VH); S354C and Y349C mutations; also called anti-CD3 bsIgG (ADI-26916 scFv); not shown: scFv linker; anti-HER2 Fab arm (heavy and light chain); hinge and Fc with S354C/Y349C; copies: 1 + 1
Procedure: as §1, §2

ADI-26920 anti-CD3 bsIgG = biological target: T3, ADI-26920 anti-CD3 bsIgG; experiment: BLI; tip anti-CD3 bsIgG, solution ADI-34145 IgG
T3 construct: anti-HER2 IgG with one Fab arm replaced by the anti-CD3 scFv (printed 'Vx-VH', read as VL-VH); S354C and Y349C mutations; also called anti-CD3 bsIgG (ADI-26920 scFv); not shown: scFv linker; anti-HER2 Fab arm (heavy and light chain); hinge and Fc with S354C/Y349C
Procedure: as §1, §2

CTL-19613 anti-CD3 bsIgG = biological target: T4, CTL-19613 anti-CD3 bsIgG (In the assay the two domains were one scFv (VL-VH orientation, linker not given). It replaced one Fab arm of an anti-HER2 IgG; S354C and Y349C mutations are stated for disulfide stabilization.); experiment: BLI; tip anti-CD3 bsIgG, solution ADI-34145 IgG
T4 construct: anti-HER2 IgG with one Fab arm replaced by the anti-CD3 scFv (printed 'Vx-VH', read as VL-VH); S354C and Y349C mutations; also called anti-CD3 bsIgG (CTL-19613 scFv); not shown: scFv linker between VL and VH; anti-HER2 heavy and light chains of the other arm; hinge and Fc (with S354C / Y349C)
Procedure: as §1, §2

ADI-26954 anti-CD3 bsIgG = biological target: T5, ADI-26954 anti-CD3 bsIgG; experiment: BLI; tip anti-CD3 bsIgG, solution ADI-34145 IgG
T5 construct: anti-HER2 IgG with one Fab arm replaced by the anti-CD3 scFv (printed 'Vx-VH', read as VL-VH); S354C and Y349C mutations; also called anti-CD3 bsIgG (ADI-26954 scFv); not shown: scFv linker; anti-HER2 Fab arm (heavy and light chain); hinge and Fc with S354C/Y349C
Procedure: as §1, §2

ADI-26906 anti-CD3 bsIgG = biological target: T6, ADI-26906 anti-CD3 bsIgG; experiment: BLI; tip anti-CD3 bsIgG, solution ADI-34145 IgG
T6 construct: anti-HER2 IgG with one Fab arm replaced by the anti-CD3 scFv (printed 'Vx-VH', read as VL-VH); S354C and Y349C mutations; also called anti-CD3 bsIgG (ADI-26906 scFv); not shown: scFv linker; anti-HER2 Fab arm (heavy and light chain); hinge and Fc with S354C/Y349C
Procedure: as §1, §2

ADI-26913 IgG = biological target: T7, ADI-26913 IgG; experiment: BLI; tip anti-CD3 IgG, solution ADI-34145 IgG
T7 construct: anti-CD3 IgG
Procedure: as §1
(§3) CTL-19613 is an IgG1 antibody prepared with anti-CD3 variable domains corresponding with those of clone 12C described in United States Publication Number US 2010/0183615 (e.g., see paragraphs 469-479 and FIG. 25 thereof), which also make up the CD3 binding domain of the bispecific antibody pasotuxizumab. […] In each column, tip-immobilized antibodies are listed first and solution antibodies second.

CTL-19672 IgG = biological target: T8, CTL-19672 IgG; experiment: BLI; tip anti-CD3 IgG, solution ADI-34145 IgG
T8 construct: IgG1 with the anti-CD3 variable domains of clone 38E4v1
Procedure: as §1, §3

ADI-26954 IgG = biological target: T9, ADI-26954 IgG; experiment: BLI; tip anti-CD3 IgG, solution ADI-34145 IgG
T9 construct: anti-CD3 IgG
Procedure: as §1, §3

ADI-26916 IgG = biological target: T10, ADI-26916 IgG; experiment: BLI; tip anti-CD3 IgG, solution ADI-34145 IgG
T10 construct: anti-CD3 IgG
Procedure: as §1, §3

ADI-22523 IgG = biological target: T11, ADI-22523 IgG; experiment: BLI; tip anti-CD3 IgG, solution ADI-34145 IgG
T11 construct: anti-CD3 IgG
Procedure: as §1, §3

ADI-26920 IgG = biological target: T12, ADI-26920 IgG; experiment: BLI; tip anti-CD3 IgG, solution ADI-34145 IgG
T12 construct: anti-CD3 IgG
Procedure: as §1, §3

ADI-26906 IgG = biological target: T13, ADI-26906 IgG; experiment: BLI; tip anti-CD3 IgG, solution ADI-34145 IgG
T13 construct: anti-CD3 IgG
Procedure: as §1, §3

CTL-19613 IgG = experiment: BLI; tip anti-CD3 IgG, solution ADI-34145 IgG
Procedure: as §1, §3

T5 sequence (VH, as listed by the source limits assumed, chain 1 of 2): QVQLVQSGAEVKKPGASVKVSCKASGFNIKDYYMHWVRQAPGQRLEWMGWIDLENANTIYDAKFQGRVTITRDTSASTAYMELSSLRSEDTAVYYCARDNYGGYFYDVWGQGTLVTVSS
T5 sequence (VL, as listed by the source limits assumed, chain 2 of 2): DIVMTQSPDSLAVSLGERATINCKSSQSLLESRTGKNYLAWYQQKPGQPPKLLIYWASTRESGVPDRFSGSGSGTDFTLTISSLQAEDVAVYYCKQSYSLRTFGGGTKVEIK
T3 sequence (VH, as listed by the source limits assumed, chain 1 of 2): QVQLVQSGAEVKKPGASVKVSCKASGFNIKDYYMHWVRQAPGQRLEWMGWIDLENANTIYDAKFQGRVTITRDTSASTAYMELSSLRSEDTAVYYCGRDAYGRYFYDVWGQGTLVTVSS
T3 sequence (VL, as listed by the source limits assumed, chain 2 of 2): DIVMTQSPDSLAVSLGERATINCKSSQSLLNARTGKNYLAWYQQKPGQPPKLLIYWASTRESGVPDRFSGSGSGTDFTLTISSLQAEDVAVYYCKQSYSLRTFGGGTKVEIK
T8 sequence (VH, as listed by the source limits assumed, chain 1 of 2): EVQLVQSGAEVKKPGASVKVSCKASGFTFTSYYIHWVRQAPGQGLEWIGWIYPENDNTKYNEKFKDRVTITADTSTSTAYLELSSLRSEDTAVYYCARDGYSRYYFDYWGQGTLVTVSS
T8 sequence (VL, as listed by the source limits assumed, chain 2 of 2): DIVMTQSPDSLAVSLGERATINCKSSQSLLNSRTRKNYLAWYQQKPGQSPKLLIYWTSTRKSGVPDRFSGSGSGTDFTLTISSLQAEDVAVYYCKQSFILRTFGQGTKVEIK
T6 sequence (VH, as listed by the source limits assumed, chain 1 of 2): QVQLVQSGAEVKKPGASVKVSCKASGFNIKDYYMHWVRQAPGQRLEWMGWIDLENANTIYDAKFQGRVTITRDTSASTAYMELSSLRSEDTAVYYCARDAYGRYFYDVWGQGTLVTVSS
T6 sequence (VL, as listed by the source limits assumed, chain 2 of 2): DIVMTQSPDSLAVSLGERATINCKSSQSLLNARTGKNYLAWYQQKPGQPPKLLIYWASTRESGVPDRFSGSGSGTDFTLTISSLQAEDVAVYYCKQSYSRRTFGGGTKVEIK
T10 sequence (VH, as listed by the source, chain 1 of 2): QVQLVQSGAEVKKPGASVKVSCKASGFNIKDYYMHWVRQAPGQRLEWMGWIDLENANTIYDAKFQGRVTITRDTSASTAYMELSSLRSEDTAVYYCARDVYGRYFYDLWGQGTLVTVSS
T2 sequence (VH, as listed by the source limits assumed, chain 1 of 2): as the sequence (VH, as listed by the source, chain 1 of 2) above
T11 sequence (VH, as listed by the source limits assumed, chain 1 of 2): as the sequence (VH, as listed by the source, chain 1 of 2) above, with A56G, A62P, V100G, L108V counted along it
T11 sequence (VL, as listed by the source limits assumed, chain 2 of 2): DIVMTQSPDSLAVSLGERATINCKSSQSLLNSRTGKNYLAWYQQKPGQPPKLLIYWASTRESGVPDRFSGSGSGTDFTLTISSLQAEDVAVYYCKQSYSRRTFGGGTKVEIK
T7 sequence (VH, as listed by the source limits assumed, chain 1 of 2): as the sequence (VH, as listed by the source, chain 1 of 2) above, with V100Q, L108V counted along it
T1 sequence (VH, as listed by the source limits assumed, chain 1 of 2): as the sequence (VH, as listed by the source, chain 1 of 2) above, with V100Q, L108V counted along it

B1: ADI-34145 IgG (antibody, V domains shown)
VH: EVQLLESGGGLVQPGGSLRLSCAASGFTFSSYAMSWVRQAPGKGLEWVSTISGSGGSTYYADSVKGRFTISRDNSKNTLYLQMNSLRAEDTAVYYCARLGGRRGSGSSYYYYYGMDVWGQGTTVTVSS
VL: not shown
notes: anti-ID IgG
Kd (ADI-26913 anti-CD3 bsIgG): 14.7 nM
Kd (ADI-26916 anti-CD3 bsIgG): 57.1 nM
Kd (ADI-26920 anti-CD3 bsIgG): 6.72 nM
binding result (CTL-19613 anti-CD3 bsIgG): no binding
Kd (ADI-26954 anti-CD3 bsIgG): 27.8 nM
Kd (ADI-26906 anti-CD3 bsIgG): 13.4 nM
Kd (ADI-26913 IgG): 1.03 nM
binding result (CTL-19672 IgG): no binding
Kd (ADI-26954 IgG): 1.82 nM
Kd (ADI-26916 IgG): 7.75 nM
Kd (ADI-22523 IgG): 2.6 nM
Kd (ADI-26920 IgG): 3.5 nM
Kd (ADI-26906 IgG): 8.39 nM
binding result (CTL-19613 IgG): no binding
